T1: PACAP-R3 (human, UniProt P41587 24-438)
T1 sequence (looked up): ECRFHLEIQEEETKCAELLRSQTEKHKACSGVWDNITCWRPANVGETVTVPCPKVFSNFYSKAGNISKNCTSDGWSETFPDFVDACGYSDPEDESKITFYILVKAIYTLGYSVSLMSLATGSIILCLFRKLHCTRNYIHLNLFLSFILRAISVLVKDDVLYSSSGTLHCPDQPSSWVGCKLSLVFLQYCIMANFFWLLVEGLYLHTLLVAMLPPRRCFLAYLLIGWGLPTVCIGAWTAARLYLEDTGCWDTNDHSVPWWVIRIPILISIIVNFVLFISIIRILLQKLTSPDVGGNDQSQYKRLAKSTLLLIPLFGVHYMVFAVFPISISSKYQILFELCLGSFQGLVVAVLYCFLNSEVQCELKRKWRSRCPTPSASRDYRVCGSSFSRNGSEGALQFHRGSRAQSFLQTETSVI

T2: PACAP-R3 (Homo sapiens, UniProt P41587)
T2 sequence (P41587 24-438): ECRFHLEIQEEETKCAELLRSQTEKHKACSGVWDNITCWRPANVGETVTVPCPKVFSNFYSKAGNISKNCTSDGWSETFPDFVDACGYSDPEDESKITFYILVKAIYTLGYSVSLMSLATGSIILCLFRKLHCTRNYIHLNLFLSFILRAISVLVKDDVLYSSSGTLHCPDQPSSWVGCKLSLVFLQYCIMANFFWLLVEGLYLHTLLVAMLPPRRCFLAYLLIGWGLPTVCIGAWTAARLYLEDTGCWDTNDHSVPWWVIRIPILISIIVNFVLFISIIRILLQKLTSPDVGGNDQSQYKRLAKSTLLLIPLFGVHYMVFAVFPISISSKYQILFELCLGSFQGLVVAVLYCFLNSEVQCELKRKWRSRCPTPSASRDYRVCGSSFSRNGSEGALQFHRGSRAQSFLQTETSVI

Non-standard residues stand in square brackets, D forms with d. No end group written: not given here. Nle = CCCC[C@H](N)C(=O)O

One test deals with T1, PACAP-R3. As to the kind of experiment: cell-based or functional assay.
Settings: not given
Turning to HSDAVFTDNYTRLRKQMAAKKYLNSIKN [R3P49], the “R3 EC50” value was determined as 270 pM and the “R3 Selectivity” value worked out at 30.
For HSDGIFTDSYSRYRKQMAVKKYLAAVKKYLAAVRHG-NH2 [R3P17] the same measures were 4000 pM and 2.
Take HSDGIFTESYSRYRKQMAVKKYLAALKKKRYKQRVKNK [R3P6]: the “R3 EC50” value was determined as 80000 pM and the “R3 Selectivity” value was found to be 3.
HSDAVFTDNYTRLRKQMAVKKYLNDILN [R3P48]: the “R3 EC50” value is 130 pM and the “R3 Selectivity” value is 8.
For HSDAVFTDNYTRLRKQMAAKKYLNSILN [R3P47], the “R3 EC50” value worked out at 120 pM and the “R3 Selectivity” value was 6.
On to HSDAVFTENYTRLRKQMAVKKYLNSLKK-NH2 [R3P7], for which the “R3 EC50” value worked out at 4000 pM and the “R3 Selectivity” value was 0.5.
For Ac-HSDAVFTENYTKLRKQ[Nle]AAKKYLNDLKKGGT-NH2 [R3P0], in that order: 400 pM and > 250.
Turning to HSDAVFTDNYTRLRKQLAVKKYLNSILN [R3P46], the “R3 EC50” value was determined as 60 pM and the “R3 Selectivity” value stood at 7.
For HSDAVFTDNYTRLRKQVAAKKYLQSIKK [R3P60], in that order: 1000 pM and 120.
For HSDAVFTDNYTRLRKQMAAKKYLNSIKKKRY [R3P52] the same measures were 400 pM and > 250.
Regarding HSDAVFTDNYTRLRKQMAVKKYLNSIKKKRY [R3P56], the “R3 EC50” value was 400 pM and the “R3 Selectivity” value worked out at 100.
For HSDAVFTDNYTRLRKQMAAKKYLNSIKNKRY [R3P55], in that order: 170 pM and 280.
For the molecule HSDAVFTDNYTRLRKQMAVKKYLNSIKNKRY [R3P59], the “R3 EC50” value is 150 pM and the “R3 Selectivity” value was found to be 70.
For Ac-HSDAVFTENYTKLRKQLAAKKYLNDLKKGGT (ends and bridges not checked) [R3P2], in that order: 3000 pM and > 300.
As to Ac-HSDAVFTENYTKLRKQLAAKKYLNDLKKGGT-NH2 [R3P1], the “R3 EC50” value was determined as 2000 pM and the “R3 Selectivity” value is > 50.
For HSDGIFTDSYSRYRKQMAVKKYLAAVKQGGT-NH2 [R3P16], in that order: 10000 pM and 1.4.
For HSDAVFTDNYTRLRKQMAAKKYLNSIKK [R3P51], the “R3 EC50” value came to 260 pM and the “R3 Selectivity” value turned out to be 90.
For HSDAVFTDNYTRLRKQMAAKKYLNSILK [R3P50] the same measures were 130 pM and 6.
For the molecule HSDAVFTDNYTRLRKQMAVKKYLNSIKKK [R3P58], the “R3 EC50” value was determined as 320 pM and the “R3 Selectivity” value was 170.
For HSDAVFTDNYTRLRKQMAVKKYLNSIKKKR [R3P57] the same measures were 230 pM and 190.
For HSDAVFTDNYTRLRKQLAAKKYLNDILKGGT [R3P23], in that order: 430 pM and 23.
For HSDAVFTDNYTRLRKQLAAKKYLNDILNGGT [R3P27], in that order: 800 pM and 8.
For the molecule HSDAVFTDNYTRLRKQIAAKKYLQTIKK [R3P61], the “R3 EC50” value came out at 800 pM and the “R3 Selectivity” value worked out at 140.
For HSDAVFTDNYTRLRKQMAAKKYLNSIKKK [R3P54], in that order: 500 pM and > 200.
As for HSDAVFTDNYTRLRKQMAAKKYLNSIKKKR [R3P53], the “R3 EC50” value came to 200 pM and the “R3 Selectivity” value was 2500.

The next test has as its target T2, PACAP-R3. As to the kind of experiment: Cyclic AMP SPA on CHO cells expressing PACAP R3. Format: cell-based. Also noted: expressed in transfected cells; host or cells: CHO cells (Geneticin selection). The following applies: cAMP SPA, CHO cells transfected with PACAP-R3; concentration at which 50% of maximum PACAP27 activity is achieved; NA = no detectable activities; read-out: R3 EC50. The procedure: CHO cells expressing the PACAP R3 were plated in 96-well plates (Costar) at 8×10^4 cell/well and grown at 37 C. for 24 hours in α MEM+nucleosides+glutamine (Giobco BRL), 10% FBS, 100 μg/ml Pen/Strep, 0.3 mg/ml glutamine, 1 mM HEPES, 0.5 mg/ml Geneticin (Gibco BRL). The media was removed and the plates were washed with PBS. The cells were incubated with a peptide, in Hepes-PBS-BSA with 0.4 mg/mlSoybean Trypsin Inhibitor, 0.5 mg/ml Bacitracin, 100 uM IBMX, for 15 min at 37 C. Cyclic AMP in the cell extracts was quantitated using the cAMP SPA direct screening assay system (Amersham Pharmacia Biotech Inc, Piscataway, N.J.,). The peptides shown in Table 3 were assayed for cAMP activity.
EC50 is defined as the concentration of the polypeptide at which 50% of maximum PACAP27 activity is achieved. “NA” denotes no detectable activities. “R3 Selectivity” is derived from the ratio of EC50 at R2 versus EC50 at R3.
Turning to `CC[C@H](C)[C@H](NC(=O)[C@H](CO)NC(=O)[C@H](CC(N)=O)NC(=O)[C@H](CC(C)C)NC(=O)[C@H](Cc1ccc(O)cc1)NC(=O)[C@H](CCCCN)NC(=O)[C@H](CCCCN)NC(=O)[C@H](CO)NC(=O)[C@H](C)NC(=O)[C@H](CCSC)NC(=O)[C@H](CCC(N)=O)NC(=O)[C@H](CCCCN)NC(=O)[C@H](CCCNC(=N)N)NC(=O)[C@H](CC(C)C)NC(=O)[C@H](CCCNC(=N)N)NC(=O)[C@@H](NC(=O)[C@H](Cc1ccc(O)cc1)NC(=O)[C@H](CC(N)=O)NC(=O)[C@H](CC(=O)O)NC(=O)[C@@H](NC(=O)[C@H](Cc1ccccc1)NC(=O)[C@@H](NC(=O)[C@H](C)NC(=O)[C@H](CC(=O)O)NC(=O)[C@H](CO)NC(=O)[C@@H](N)Cc1c[nH]cn1)C(C)C)[C@@H](C)O)[C@@H](C)O)C(=O)N[C@@H](CCCCN)C(=O)N[C@@H](CC(N)=O)C(=O)N[C@@H](CCCCN)C(=O)N[C@@H](CCCNC(=N)N)C(=O)O` [Peptide R3P111], the EC50 – broadly, the midpoint of the concentration-response curve – turned out to be 3000 pM.
Still for that read-out and setting: the same measure for `CC[C@H](C)[C@H](NC(=O)CNC(=O)[C@H](CC(=O)O)NC(=O)[C@H](CO)NC(=O)[C@@H](N)Cc1c[nH]cn1)C(=O)N[C@@H](Cc1ccccc1)C(=O)N[C@H](C(=O)N[C@@H](CC(=O)O)C(=O)N[C@@H](CO)C(=O)N[C@@H](Cc1ccc(O)cc1)C(=O)N[C@@H](CO)C(=O)N[C@@H](CCCNC(=N)N)C(=O)N[C@@H](Cc1ccc(O)cc1)C(=O)N[C@@H](CCCNC(=N)N)C(=O)N[C@@H](CCCCN)C(=O)N[C@@H](CCC(N)=O)C(=O)N[C@@H](CC(C)C)C(=O)N[C@@H](C)C(=O)N[C@H](C(=O)N[C@@H](CCCCN)C(=O)N[C@@H](CCCCN)C(=O)N[C@@H](Cc1ccc(O)cc1)C(=O)N[C@@H](CC(C)C)C(=O)N[C@@H](C)C(=O)N[C@@H](C)C(=O)N[C@H](C(=O)N[C@@H](CCCCN)C(=O)N[C@@H](CCCCN)C(=O)O)C(C)C)C(C)C)[C@@H](C)O` [Peptide R3P39]: 500 pM; for `CC[C@H](C)[C@H](NC(=O)CNC(=O)[C@H](CC(=O)O)NC(=O)[C@H](CO)NC(=O)[C@@H](N)Cc1c[nH]cn1)C(=O)N[C@@H](Cc1ccccc1)C(=O)N[C@H](C(=O)N[C@@H](CC(=O)O)C(=O)N[C@@H](CO)C(=O)N[C@@H](Cc1ccc(O)cc1)C(=O)N[C@@H](CO)C(=O)N[C@@H](CCCNC(=N)N)C(=O)N[C@@H](Cc1ccc(O)cc1)C(=O)N[C@@H](CCCNC(=N)N)C(=O)N[C@@H](CCCCN)C(=O)N[C@@H](CCC(N)=O)C(=O)N[C@@H](CCSC)C(=O)N[C@@H](C)C(=O)N[C@H](C(=O)N[C@@H](CCCCN)C(=O)N[C@@H](CCCCN)C(=O)N[C@@H](Cc1ccc(O)cc1)C(=O)N[C@@H](CC(C)C)C(=O)N[C@@H](C)C(=O)N[C@@H](C)C(=O)N[C@H](C(=O)N[C@@H](CCCCN)C(=O)N[C@@H](CCCCN)C(=O)O)C(C)C)C(C)C)[C@@H](C)O` [Peptide R3P40]: 700 pM; for “H-HSDAVFTDNYTRLRKQMAPKKYLNSIKNKR [Peptide R3P108]”: 300000 pM.

The same test, now with this note: ratio of EC50 at R2 versus EC50 at R3.
Consider “H-HSDAVFTDNYTRLRKQMAPKKYLNSIKNKR [Peptide R3P108]”, for which the “R3 Selectivity” value stood at 3.

Source of the values: patent US6972319B1, “Pituitary adenylate cyclase activating peptide (PACAP)receptor 3 (R3) agonists and their pharmacological methods of use” (priority 1999, dated 2005).
